The source of these data is patent US5721126.

For this series, the target named is T1, ScaI restriction endonuclease (Streptomyces caespitosus) (UniProt O52691).
T1 sequence: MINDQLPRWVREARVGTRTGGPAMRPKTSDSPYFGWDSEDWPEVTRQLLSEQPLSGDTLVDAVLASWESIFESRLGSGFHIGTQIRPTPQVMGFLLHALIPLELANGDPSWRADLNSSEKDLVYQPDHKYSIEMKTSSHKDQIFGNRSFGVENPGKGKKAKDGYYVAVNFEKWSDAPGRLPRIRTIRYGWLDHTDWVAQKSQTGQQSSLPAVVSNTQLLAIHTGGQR
Briefly: cleavage_in_vitro. To be noted: diluted cell extract, 1 ug DNA, 37 C, 1 h.

For the substance lambda DNA (ScaI sites), the activity (units/g wet cells) was 1e+06.
